Test: yeast display, Sf9 membrane polyspecificity reagent, FACS + sequencing; frameworks hold sequencing errors
In short: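 Nanobodies from a synthetic yeast display library (Saccharomyces cerevisiae BJ5465), induced 36–48 hours with galactose, were stained 1 hour at 4 °C with 10% biotinylated, detergent-solubilized Sf9 membrane reagent, enriched on streptavidin microbeads, then FACS-sorted. Anti-HA (expression) and streptavidin (reagent binding) fluorescence set low and high (top ~1%) gates. Polyreactivity labels come from the gate of origin. Genes were colony-PCR amplified, MiSeq 2 × 250 sequenced and filtered by CDR length.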

| Sequence | polyreactivity (PSR sort gate) |
| --- | --- |
| QVQLVESGGGLDQAGGSLRLSCAASGRTFANAMGWYRQAPGKERELVAGITSGGGRTYYADSVKGRFTMSRDNAKNTVYLQMNSLKPEDTAVYYCNRATPPGRLKSDSWGQGTQVTVSS | high polyreactivity |
| QVQLVESGGGLDQAGGSLRLSCAASGRTFAVYAMGWYIQAPGKERELVASIRLSGTRTYYADSVKGRFTISRDHAKNTVYFQMNSLKPEDTAVYYCAAKGTYSRGTFNGYRYDYWGQGTQVTVSS | high polyreactivity |
| QVQLVESGGGLDQAGGSLRLSCAASGRTFGRYAMGWYRKAPGTERELVAAISWSGGSTYYADSVKGRFTISRDNAKNTVYLQMNSLKPEDTAVYYCAAYEHVYEYDYWGQGTQVTVSS | low polyreactivity |
| QVQLVESGGGLDQAGGSLRLSCAASGRTFKYYAMGWYRQAPGKERELVAAITRSGSTYYADSVKGRFTISRDNAKNTVYLQMNSLKPEDTAVYYGAADVTLYYRGRRYYYWGQGTQVTVSS | high polyreactivity |
| QVQLVESGGGLDQAGGSLRLSCAASGRTFLVYAMGWYRQAPGKERELVAAISRSGGSTYYADSVMRRFTISRDNAKNNVYLQMNSLIPEDTAVYYCAAKKTGRYYWGQGTEVTVSS | high polyreactivity |
| QVQLVESGGGLDQAGGSLRLSCAASGRTFRYYAMGWDRQAPGKERELVAAITGSGGSTYYADSVKGRFTISRDIAKNTVYLQMNSLKPEDTAVYYCATRWALRWRGGYWGQGTQVTVSS | high polyreactivity |
| QVQLVESGGGLDQAGGSLRLSCAASGRTLYRYAMGWYRQSPGKERELVAAIRSGGRTNYADSVKGRFTISRDNAKNTVYLQLNSLKPEDTAVYYCAARTLRYPSTYDYWGQGTQVTVSS | high polyreactivity |
| QVQLVESGGGLDQAGGSLRLSCAASGSIFGRNAMRWYRQAPGKERELVAAITGYTYYADSVKGRFTISRDNAKNTVYLQMNSLKPEDTAVYYINADHDVGWTYDTEYNYWGQGTQVTVSS | low polyreactivity |
| QVQLVESGGGLDQAGGSLRLSCAASGSIFGTNTMGWYRQSPGKERELVAAIRLSDSSTYYADSVKGRFTISRDNAKNTVYLQMNSLKPEDTAVYYCAVDYRAYHYYRYDYWGQGTQVTVSS | low polyreactivity |
| QVQLVESGGGLDQAGGSLRLSCAASGSIFLDYAMGWYRQAPGKERELVAAISLSSSRTYYADSLKGRFTISRDNAKNTVYLQLNSLKPEDTAVYNCNKLSIWSYYFGPYGYDYWGQGTQVTVSS | low polyreactivity |
| QVQLVESGGGLDQAGGSLRLSCAASGSIFRRYTMGWYRQAPGKERELVAAISRVGNTNYADSVKGRITISRDNAKNTVYFQMNSLKPEDTEVYYCAARAIGYRYTPGLNYWGQGTQVTVSS | high polyreactivity |
| QVQLVESGGGLDQAGGSLRLSCAASGSIFSVYAMGWYRQARGKERELVAAITSGTSTYADSVKGRFTISRDNAKNSVYLQMNSLKPEDTAVYYCAAESGSPGYYYWGQGTQVTVSS | low polyreactivity |
| QVQLVESGGGLDQAGGSLRLSCAASGSIFVGYAMGWYRQAPGKERELVASINYSGGTTDYADSVKGRFTISRDNAKNTVYLQMHSLKPEDTAVYYCAKTAVDCSFTKGVDYDYWGQGTQVTVSS | low polyreactivity |
| QVQLVESGGGLDQAGGSLRLSCAASGSIFVPYAMGGYRQAPGKERELVAAITSGDSTYYADSVKGRFTISRDNAKNNVYLQMNSLKPEDTAVYYCAADIRPTLSLLSLFDYEYWGQGTQVTVSS | low polyreactivity |
| QVQLVESGGGLDQAGGSLRLSCAASGSISGYNAMGWYRQAPGKERELVASIRYTGARSYYADSGKGRFTISRDNAKNTVYLQMNSLKPEDTAVYYCAADSAYDVTSYGYWGQGTQVTVSS | low polyreactivity |
| QVQLVESGGGLDQAGGSLRLSCAASGSTFGVYAMGWYRQAPGKERELVAAISSSTGSTYYADSVKGRFTISRDNAKNTVYLQMNSLKPEDTAVYYCAAEYDGPYYSFYPEQRYYWGQGTQVTVSS | low polyreactivity |
| QVQLVESGGGLDQAGGSLRLSCAASGSTFHYYAMGWYRQPHGKERELVAVISSGGSTYYADSVKGRFTISRDNAKNTVYLQMNSLKPEDTAVYYCAAEYFLLAGKGYNGGDYYVYDYWGQGTQVTVSS | low polyreactivity |
| QVQLVESGGGLDQAGGSLRLSCAASGSTFLHYAMGWYRQAPRKERELVAAISFSGVRTYYADSVKGRFTISRDNAKNTVYLQMNSLKPEDTAVFYCAADGHHADYDYWGQGTQVTVSS | low polyreactivity |
| QVQLVESGGGLDQAGGSLRLSCAASGSTFPSNAMGWYRQAPGNESEFVAAITFRGGRTYYADSVKGRFTISRDNAKNTVYLQMNSLKREDTAVYYCAAERWWYTVRGYGYWGQGTQVTVSS | high polyreactivity |
| QVQLVESGGGLDQAGGSLRLSCAASGSTFRYYTMGWYRQAHGKERELVAAISSRGGSTYYADSVKGRFTISRDNAKKTVYLQMNSLKPEDSAVYYCCALYPSWAQRGRDYWGQGTQVSVSS | high polyreactivity |
| QVQLVESGGGLDQAGGSLRLSCAASGSTFSQYVMGWYRQAPGKERELVAANSSGGSTYYADSVKGRFTISRDNAKNTVYLQMNSLKPEDTAVYYCAAKYDGSYVGLYWYSMNYWGQGTQVTVSS | low polyreactivity |
| QVQLVESGGGLDQAGGSLRLSCAASGSTFTKNVMGWYRQAPGKERELVAAISSGGRTNYADSVKGRFTISRDNAKNTVYLQMNSLKPEDTAVYFCAADVGYFKSDYWGQGTQVTVSS | low polyreactivity |

| Sequence | polyreactivity (PSR sort gate) |
| --- | --- |
| QVQLVESGGGLDQAGGSLRLSCAASGSTFVWNAMGWYRHAPGKERELVAAISSSGGSTYYADSVKGRFTISRDNAKNTVYLQMNSLKPEDTAVYYCAKGYYVRMDWGQGTQVTVSS | high polyreactivity |
| QVQLVESGGGLDQAGGSLRLSCAASGSTFVYNVMGWYRQAPGKERELVAAITSGVRTYYADSEKGRFTISRDNAKNTGYLQMNSLKPEDTAVYYCATGWRNAKYYYWGQGTQVNVSS | high polyreactivity |
| QVQLVESGGGLDQAGGSLRLSCAASGTTFVPNDMGWYRQAPGKERELVAAITDSGGSTYYADSVWGRFTISRDNAKNTVYLQMNILKPEDTAVYYCADVQHYVTHMDYWGQGNQVTVSS | low polyreactivity |
| QVQLVESGGGLDQAGGSLRLSCAASVLIFNIYARGWYRQAPGKERELVATIRYSGGSTNYADSVKGRFTISRDNAKNTVYLQMNSLKPEDTAVYYCNAGYYPSGYDYWGQGTQVTVSS | low polyreactivity |
| QVQLVESGGGLDQAGGSLRLSCAAYGITFGYYAMGWYRQAPGKERELVASITTRGGSTSYADSVKGRFTISRDNAKNTVYLQMNSLKPEDTAVYYCAARWRQRKSVRYGQQGYDYWGQGTQVTVSS | high polyreactivity |
| QVQLVESGGGLDQAGGSLRLSCADSGSIFESYAMGWYRQAPGKERELVAAITKRGGSTYYADSVKGRFTISRDNAKNTVYLQMNSLKPEDTAVYYCNARWPGIGPIYDYWGQGTQVTVSS | low polyreactivity |
| QVQLVESGGGLDQAGGSLRLSCDASGRIFGYYAMGWYRQAPGKERELVAAITWTGGGTYYADSVKGRFTISRDNAKNTVYIQMNSLKPEDTAVYYCAADPDSGQFPFDYWGQGTQVTVSS | low polyreactivity |
| QVQLVESGGGLDQAGGSLRLSCPASGSTFLNNAMGRYRQAPGKERELVATITSGGITNYADSVKGRFTISRDNAKNCVYLQMNSLKPEDTAVYYCNADTWGFTYYYWGQGTQVTVSS | low polyreactivity |
| QVQLVESGGGLDQAGGSLRLSCVASGFTFRVYAMGWYRQAPGKERELVAAISRVGSTNYADSVKGRFTISRDNAKNTVYLQMNSLKPEDTAVYYCNAVLRHTWVSRGYGSWGQGTQVTVSS | high polyreactivity |
| QVQLVESGGGLDQAGGSLRLSSAASGFTFERYPMGWDRQAPGKEREMVAAIDWRGVNTYYADSVKGRFTISRHTAKTTVYLQMNSLKPEDTAVYYCNARAYGRYYWGQGTQVTVSS | high polyreactivity |
| QVQLVESGGGLDQAGGSLRLSSAASGSIFRGNAMGWYRQAPGKERELVAGINRAGSTKYADSVKGRFTISRDNAKNTVYLQMNSLIPEDTAVYYCAAVRYERGLWSDYWGQGTQVTVSS | high polyreactivity |
| QVQLVESGGGLDQAGGSLRLTCAASGSIFAKYAMGWYRQAPGKERELVAAITSSGDSTNYADSVKGRFTISRDNAKNTVYVQMNSLKPEDTAVYYCAADHHYGYVYYAFWGYDYWGQGTQVTVSS | low polyreactivity |
| QVQLVESGGGLDQAGGSLRLTCAASGSTFEVYAMGWYRQAPGKERELVAVNNVSDGSTYYADSVKGRFTISRDNAKNTVYLQMNSLKPEDTAVYYCAAYLYNRPYQLTGYYDGYGYWGQGTQVTVSS | low polyreactivity |
| QVQLVESGGGLDQAGGSLSLICAASASIFSYYAMGWYRQAAGKERELVATISSGGSTNYADSVKGRFTISRDNAKNTVYLQMNSLKPEDTAVYYCAATIGHNGFDYWGQGTQVTVSS | low polyreactivity |
| QVQLVESGGGLDQAGGSLSLSCAASGLIINSNTMGWYRQAPGKERELVAVINWRGGRTYYADSVKGRFTISRDNAKNTVDLQMNSLKPEDTAVYYCAAYLHGARYGYWGQGTQVTVSS | high polyreactivity |
| QVQLVESGGGLDQAGRSLRLSCAASGRTDVTYAMGWYRQAPGKEREFVAAISASGGTTYYADSVKGRFTISRDNSKNTVYLQMNSRKPEDTAVYYCAADIRGTVYLSSFWMEYWGQGTQVNVSS | low polyreactivity |
| QVQLVESGGGLDQAGVSLRLSCAASGSTFRIYAMGWYRPAPGKERELVAAISRSGGSTYYADSVKGRFTISRDNAKNTVYLQMNSLKPEDTAVYYCAALSVASRWFGRGTGGYWGQGTQVTVSS | high polyreactivity |
| QVQLVESGGGLDQAGVSLRLSSAASGSTFVRNAMGCYRQAPGKEREWVAAINIGGSTYYADSVKGRFTISRDNAKNTVYLQMNSLKPEDTAVYYFAARIKYRYDWGQGTQVTVSS | low polyreactivity |
| QVQLVESGGGLDQARGSLRLSCAASAPTFNSNAMGWYRQAPGKERDLVADINGGGSTYYADSVKGRFTISRDNAKNTVYLQMNSLKPEDTAVYYCAKCYTWYVWYPHGYWGQGTQVTVSS | low polyreactivity |
| QVQLVESGGGLDQARGSLRLSCAASGGIFDHNAMGWYRQAPGKEREFVAAITWSGGGTYYADSVKGRFTISRDNAKNTVYLQMNSLKPEDTAVYYCAATVYGIYYYGKDRYDYWGQGTQVTVSS | low polyreactivity |
| QVQLVESGGGLDQARGSLRLSCAASGRIFRSYVMGWYRQAPWKERELVAAISWRGGSTYADSVKGRFTISRDNAKNTVYLQMNSLKPEDTAVYYCAARGPYTYRRYCYWGQGTQVTVSS | high polyreactivity |
